Laboratory results published in patent US20230241243A1, “CARRIER PARTICLE-DRUG CONJUGATES, SELF-IMMOLATIVE LINKERS, AND USES THEREOF” (priority 2020, published 2023).

assay: Drug-release assay of nanoparticle-conjugated linker-payloads under cleavage conditions (Cat-B, redox-responsive or pH-sensitive cleaving study), RP-HPLC; format: in vitro ADME; conditions: linker-payload conjugated to DBCO-functionalized silica nanoparticle, 37° C., 24 hours
Protocol: To assess the drug releasing profile of exemplary linker-drug conjugates, the linker-drug conjugates were each conjugated to a DBCO-functionalized ultrasmall silica nanoparticle via a click chemistry reaction between the azide groups on the linker-drug conjugate precursors and the dibenzocyclooctyne (DBCO) groups of the nanoparticles. The resulting drug-nanoparticle-conjugates were then incubated under the desired releasing conditions for release kinetics tests.
The amount of released drugs vs non-released drugs was measured using reverse phase HPLC by analyzing the area under curve (AUC) (FIG. 10A and FIG. 10B).
General Method: A Waters Xbridge Peptide BEH C18 column with 4.6 mm×50 mm dimensions, a particle size of 5 μm, and a pore size of 300 A was used (part number 186003622). Acetonitrile (VWR HiPerSolv Chromanorm, UHPLC Grade) was used as received without further preparation, […] trifluoroacetic acid in deionized water was prepared by adding 1 mL of trifluoroacetic acid (HPLC grade, Millipore-Sigma) into 999 mL 18.2 MΩ·cm deionized water that was generated using an IQ7000 Millipore deionized water system and passed through a 0.2 μm filter before use. The seal wash used for the system was composed of 90% 18.2 MΩ·cm deionized water and 10% methanol (HPLC grade, VWR). The injection needle was washed using a mixture of 25 vol % 18.2 MΩ·cm deionized water, 25 vol % acetonitrile, 25 vol % methanol, and 25 vol % 2-propanol. Samples were prepared in a concentration range of 0.25 to 2 μM and the injection volume ranges from 60 μL to 10 μL, respectively. Higher sample concentration can be used if detector signal is low. Vials used for all injections are fresh Waters Total Recovery vials with screw caps that have pre-slit PTFE septa (part number 186000385C).
Method for Protease-cleavable and Redox-responsive Linkers: Before any sample injections were started, the PDA lamp was turned on and allowed to warm up for at least 30 minutes. The system and column were equilibrated with 95% 0.01% TFA in deionized water, 5% acetonitrile for at least 10 minutes at a flow rate of 1.0 mL/min after the PDA lamp had warmed up. Two blank injections, with injection volumes of 10 μL containing only 18.2 MΩ·cm deionized water, were performed before the injection of any samples for analysis. The gradient used to elute protease-cleavable and redox-sensitive linkers conjugated to hybrid silica nanoparticles, and their components began at 95% 0.01% TFA in deionized water and 5% acetonitrile and linearly changed to 15% 0.01% TFA in deionized water, 85% acetonitrile over 8 minutes. Acetonitrile composition was increased to 95% over an additional minute and held at 95% for an additional 2 minutes to ensure that any strongly retained compounds are eluted. The composition of the solvent was then changed back to the starting composition of the gradient over an additional minute and allowed to equilibrate for 3 minutes before another injection began. Between sample injections a blank injection was run to ensure that no carryover occurred.
Method for pH-sensitive Linkers: Before any sample injections were started, the PDA lamp was turned on and allowed to warm up for at least 30 minutes. A gradient of pure deionized water and acetonitrile was used, all other consumables including column and vials were the same as for the method to purify Cat-B sensitive and redox-responsive linkers elaborated on above. Briefly the gradient composition began at 95% deionized water and 5% acetonitrile at a flow rate of 1.0 mL/min (not changed throughout the method). The composition was changed from this starting composition to 15% deionized water and 85% acetonitrile over a 12-minute period, during which the retained drug-linkers, released drug, free drug linker, and any other impurities eluted. At the 12-minute mark the composition was rapidly changed to 5% deionized water and 95% acetonitrile over the course of one minute. […]

SMILES | % of Payload Release in 24 Hours Under Cleavage Conditions
CCc1c2c(nc3ccc(OCCCNC(=O)OCc4ccc(NC(=O)[C@H](CCCCN)NC(=O)[C@H](Cc5c[nH]c6ccccc56)NC(=O)CCOCCOCCOCCOCCOCCOCCOCCOCCOCCN=[N+]=[N-])cc4)cc13)-c1cc3c(c(=O)n1C2)COC(=O)[C@]3(O)CC [Example 32, 4-((32S,35S)-32-((1H-indol-3-yl)methyl)-35-(4-aminobutyl)-1-azido-30,33-dioxo-3,6,9,12,15,18,21,24,27-nonaoxa-31,34-diazahexatriacontan-36-amido)benzyl (3-(((S)-4,11-diethyl-4-hydroxy-3,14-dioxo-3,4,12,14-tetrahydro-1H-pyrano[3′,4′:6,7]indolizino[1,2-b]quinolin-9-yl)oxy)propyl)carbamate] | + (‘+’ indicates 5-25% release)
CCc1c2c(nc3ccc(OC(C(=O)N(C)C)c4ccc(NC(=O)[C@H](CCCNC(N)=O)NC(=O)[C@@H](NC(=O)CCOCCOCCOCCOCCOCCOCCOCCOCCOCCN=[N+]=[N-])C(C)C)cc4)cc13)-c1cc3c(c(=O)n1C2)COC(=O)[C@]3(O)CC (stereo partly drawn) [Example 19, 1-azido-N-((2S)-1-(((2S)-1-((4-(1-(((S)-4,11-diethyl-4-hydroxy-3,14-dioxo-3,4,12,14-tetrahydro-1H-pyrano[3′,4′:6,7]indolizino[1,2-b]quinolin-9-yl)oxy)-2-(dimethylamino)-2-oxoethyl)phenyl)amino)-1-oxo-5-ureidopentan-2-yl)amino)-3-methyl-1-oxobutan-2-yl)-3,6,9,12,15,18,21,24,27-nonaoxatriacontan-30-amide] | + (‘+’ indicates 5-25% release)
CC[C@@]1(O)C(=O)OCc2c1cc1n(c2=O)Cc2c-1nc1cc(F)c(C)c3c1c2[C@@H](NCc1c(F)cc(NC(=O)[C@H](CCCNC(N)=O)NC(=O)[C@@H](NC(=O)CCOCCOCCOCCOCCOCCOCCOCCOCCOCCOCCOCCN=[N+]=[N-])C(C)C)cc1F)CC3 [Example 23, 1-azido-N-((S)-1-(((S)-1-((4-((((1S,9S)-9-ethyl-5-fluoro-9-hydroxy-4-methyl-10,13-dioxo-2,3,9,10,13,15-hexahydro-1H,12H-benzo[de]pyrano[3′,4′:6,7]indolizino[1,2-b]quinolin-1-yl)amino)methyl)-3,5-difluorophenyl)amino)-1-oxo-5-ureidopentan-2-yl)amino)-3-methyl-1-oxobutan-2-yl)-3,6,9,12,15,18,21,24,27,30,33-undecaoxahexatriacontan-36-amid] | + (‘+’ indicates 5-25% release)
CC[C@@]1(O)C(=O)OCc2c1cc1n(c2=O)Cc2c-1nc1cc(F)c(C)c3c1c2[C@@H](NC(=O)OCc1ccc(NC(=O)[C@H](CCCNC(N)=O)NC(=O)[C@@H](NC(=O)CCOCCOCCOCCOCCOCCN=[N+]=[N-])C(C)C)cc1)CC3 [Example 9, 4-((20S,23S)-1-azido-20-isopropyl-18,21-dioxo-23-(3-ureidopropyl)-3,6,9,12,15-pentaoxa-19,22-diazatetracosan-24-amido)benzyl ((1S,9S)-9-ethyl-5-fluoro-9-hydroxy-4-methyl-10,13-dioxo-2,3,9,10,13,15-hexahydro-1H,12H-benzo[de]pyrano[3′,4′:6,7]indolizino[1,2-b]quinolin-1-yl)carbamate] | ++++ (‘++++’ indicates 76-100% release)
CC[C@@]1(O)C(=O)OCc2c1cc1n(c2=O)Cc2c-1nc1cc(F)c(C)c3c1c2[C@@H](NC(=O)OCc1ccc(NC(=O)[C@H](CCCNC(N)=O)NC(=O)[C@@H](NC(=O)CCOCCOCCOCCOCCOCCOCCOCCOCCOCCOCCOCCN=[N+]=[N-])C(C)C)cc1)CC3 [Example 11, 4-((38S,41S)-1-azido-38-isopropyl-36,39-dioxo-41-(3-ureidopropyl)-3,6,9,12,15,18,21,24,27,30,33-undecaoxa-37,40-diazadotetracontan-42-amido)benzyl ((1S,9S)-9-ethyl-5-fluoro-9-hydroxy-4-methyl-10,13-dioxo-2,3,9,10,13,15-hexahydro-1H,12H-benzo[de]pyrano[3′,4′:6,7]indolizino[1,2-b]quinolin-1-yl)carbamate] | +++ (‘+++’ indicates 51-75% release)
CCc1c2c(nc3ccc(OCc4ccc(NC(=O)[C@H](CCCNC(N)=O)NC(=O)[C@@H](NC(=O)CCOCCOCCOCCOCCOCCOCCOCCOCCOCCN=[N+]=[N-])C(C)C)cc4)cc13)-c1cc3c(c(=O)n1C2)COC(=O)[C@]3(O)CC [Example 48, 1-azido-N-((S)-1-(((S)-1-((4-((((S)-4,11-diethyl-4-hydroxy-3,14-dioxo-3,4,12,14-tetrahydro-1H-pyrano[3′,4′:6,7]indolizino[1,2-b]quinolin-9-yl)oxy)methyl)phenyl)amino)-1-oxo-5-ureidopentan-2-yl)amino)-3-methyl-1-oxobutan-2-yl)-3,6,9,12,15,18,21,24,27-nonaoxatriacontan-30-amide] | + (‘+’ indicates 5-25% release)
CC[C@@]1(O)C(=O)OCc2c1cc1n(c2=O)Cc2c-1nc1cc(F)c(C)c3c1c2[C@@H](NC(=O)OCc1ccc(NC(=O)[C@H](CCCCN)NC(=O)[C@H](Cc2ccccc2)NC(=O)CCOCCOCCOCCOCCOCCOCCOCCOCCOCCOCCN=[N+]=[N-])cc1)CC3 [Example 26, 4-((35S,38S)-38-(4-aminobutyl)-1-azido-35-benzyl-33,36-dioxo-3,6,9,12,15,18,21,24,27,30-decaoxa-34,37-diazanonatriacontan-39-amido)benzyl ((1S,9S)-9-ethyl-5-fluoro-9-hydroxy-4-methyl-10,13-dioxo-2,3,9,10,13,15-hexahydro-1H,12H-benzo[de]pyrano[3′,4′:6,7]indolizino[1,2-b]quinolin-1-yl)carbamate] | + (‘+’ indicates 5-25% release)
CCc1c2c(nc3ccc(OCc4c(F)cc(NC(=O)[C@H](CCCNC(N)=O)NC(=O)[C@@H](NC(=O)CCOCCOCCOCCOCCOCCOCCOCCOCCOCCN=[N+]=[N-])C(C)C)cc4F)cc13)-c1cc3c(c(=O)n1C2)COC(=O)[C@]3(O)CC [Example 21, 1-Azido-N-((S)-1-(((S)-1-((4-((((S)-4,11-diethyl-4-hydroxy-3,14-dioxo-3,4,12,14-tetrahydro-1H-pyrano[3′,4′:6,7]indolizino[1,2-b]quinolin-9-yl)oxy)methyl)-3,5-difluorophenyl)amino)-1-oxo-5-ureidopentan-2-yl)amino)-3-methyl-1-oxobutan-2-yl)-3,6,9,12,15,18,21,24,27-nonaoxatriacontan-30-amide] | + (‘+’ indicates 5-25% release)
CC[C@@]1(O)C(=O)OCc2c1cc1n(c2=O)Cc2c-1nc1cc(F)c(C)c3c1c2[C@@H](NC(=O)[C@@H](CCCNC(N)=O)NC(=O)[C@@H](NC(=O)CCOCCOCCOCCOCCOCCOCCOCCOCCOCCOCCOCCN=[N+]=[N-])C(C)C)CC3 [Example 50, 1-azido-N-((S)-1-(((R)-1-(((1S,9S)-9-ethyl-5-fluoro-9-hydroxy-4-methyl-10,13-dioxo-2,3,9,10,13,15-hexahydro-1H,12H-benzo[de]pyrano[3′,4′:6,7]indolizino[1,2-b]quinolin-1-yl)amino)-1-oxo-5-ureidopentan-2-yl)amino)-3-methyl-1-oxobutan-2-yl)-3,6,9,12,15,18,21,24,27,30,33-undecaoxahexatriacontan-36-amide] | + (‘+’ indicates 5-25% release)
CCc1c2c(nc3ccc(OC(C(=O)OC)c4ccc(NC(=O)[C@H](CCCNC(N)=O)NC(=O)[C@@H](NC(=O)CCOCCOCCOCCOCCOCCN=[N+]=[N-])C(C)C)cc4)cc13)-c1cc3c(c(=O)n1C2)COC(=O)[C@]3(O)CC (stereo partly drawn) [Example 12, methyl 2-(4-((20S,23S)-1-azido-20-isopropyl-18,21-dioxo-23-(3-ureidopropyl)-3,6,9,12,15-pentaoxa-19,22-diazatetracosan-24-amido)phenyl)-2-(((S)-4,11-diethyl-4-hydroxy-3,14-dioxo-3,4,12,14-tetrahydro-1H-pyrano[3′,4′:6,7]indolizino[1,2-b]quinolin-9-yl)oxy)acetate] | + (‘+’ indicates 5-25% release)
